# Experimental data published in patent publication US20250326848A1 (SHANGHAI HENLIUS BIOTECH, published 2025).
# B1: M1 #21, anti-CD47 antibody (WO2022063316A1) (antibody, V domains shown)
# VH: QVQLQQWGAGLLKPSETLSLTCAVYGGSFSGYYWSWIRQPPGKGLEWIGEINQSGSTNYNPSLKSRVTISVDTSKNQFSLRLSSVTAADTAMYYCARFTGRPYYGMDVWGQGTTVTVSS
# VL: SYELTQPPSVSATPGQRVTISCSGSESNIGSHKVKWYQQFAGAAPRLLIHGNDQRFSGVPDRFSGSKSGTSASLAISGLQSEDEADYYCAAWDDSLYGRVFGGGTKLTVL
# Legend:
# [1] = biological target: T1, human CD47 on primary human platelets (human, UniProt Q08722 19-323); experiment: FACS, binding to primary human platelets, donor1
# T1 construct: whole, on cells
# [2] = biological target: T1, human CD47 on primary human platelets; experiment: FACS, binding to primary human platelets, donor 2
binder,measurement,setting,value
B1,EC50 (read off the curve),[1],~0.7 nM
same,EC50 (read off the curve),[2],~0.3 nM
